The target in assay [1] is T1, soluble IGF-1R (recombinant human IGF-1R extracellular domain, R&D Systems Cat. # 391-GR/CF) (human, UniProt P08069 31-935).
T1 construct: extracellular domain; Bought protein; coated on plates (phage ELISA, TRF) or Eu-labelled (TR-FRET); also called sIGF-1R; rhIGF-1R
In words: phage ELISA. (In an ELISA, binding on a coated surface is turned into a signal by an enzyme label.)

For assay [2], the target named is T2, soluble human insulin receptor-immunoglobulin heavy chain chimera (human, UniProt P06213 28-956, limits assumed).
T2 construct: extracellular domain; also called sIR-Fc; IR (prepared according to Bass et al., 1996); not shown: immunoglobulin heavy chain constant domains (Bass et al., 1996)
In words: phage ELISA.

B1: H2CA-2-B3-IGFR (peptide)
peptide: PPLASDLDVQFYGWFVQQVSPPGRGG
notes: on phage
As to B1, the figures for the ratio over background in assay [1] and in assay [2] were 3.8 ratio and 1 ratio, respectively.

B2: NNRPγ-4-A1-IR (peptide)
peptide: IIGGFYSYFNSVLRLGT
notes: on phage
As for B2, the ratio over background in assay [1] is 10.9 ratio; in assay [2] it was 1.8 ratio.

B3: B6Hα-3-E7-IR (peptide)
peptide: GCAVVEEAERSRGDPFYHKLSELIQGC
notes: on phage
In the case of B3, the ratio over background was 5.6 ratio in assay [1] and 1.3 ratio in assay [2].

B4: NNRPγ-4-A9-IR (peptide)
peptide: EGSGFYGYFFSLLGLQG
notes: on phage
Turning to B4, the ratio over background in assay [1] came out at 10 ratio; in assay [2], 1.4 ratio.

B5: 20E2B-4-G11-IGFR (peptide)
peptide: RQGTGSFYLMLEQLLVGARGP
notes: on phage
Take B5: the ratio over background stood at 4.5 ratio in assay [1] and 0.6 ratio in assay [2].

B6: 20E2B-2-28-IGFR (peptide)
peptide: IWATGDFYRLLSQLVMGRVGT
notes: on phage
For the molecule B6, the values for the ratio over background in assay [1] and in assay [2] were 5.7 ratio and 0.8 ratio, respectively.

B7: 20E2B-4-H9-IGFR (peptide)
peptide: RCQGTGFYTCIQELIGFGDPD
notes: on phage
Consider B7, for which the ratio over background in assay [1] was determined as 5.2 ratio; in assay [2], 0.9 ratio.

B8: B6Hα-4-G8-IR (peptide)
peptide: GGTKAVAKVGTRDDPFYHKLSELLQGS
notes: on phage
As for B8, the ratio over background in assay [1] came to 6.1 ratio; in assay [2], 1.7 ratio.

B9: 20E2B-3-D12-IGFR (peptide)
peptide: QGNVLDFYGWIGRLLAKQGSD
notes: on phage
Turning to B9, the ratio over background turned out to be 6.2 ratio in assay [1] and 0.9 ratio in assay [2].

B10: H2CA-3-D7-IGFR (peptide)
peptide: LRRQAPVEENFYDWFVRQVSGDRVGG
notes: on phage
As to B10, the ratio over background in assay [1] is 3 ratio; in assay [2], 0.8 ratio.

B11: B6Hα-3-F10-IR (peptide)
peptide: GCVVEWQKWHGASDPFYHKLSELGGCS
notes: on phage
As to B11, the ratio over background in assay [1] turned out to be 8.8 ratio; in assay [2], 1.9 ratio.

B12: 20C-3-E4-IGFR (peptide)
peptide: FFYRCLSRLLGGQLGSRLGLSCIGD
notes: on phage
As to B12, the ratio over background in assay [1] came to 7.7 ratio; in assay [2], 1.3 ratio.

B13: 20E2B-1-A8-IGFR (peptide)
peptide: TLRSPTFYDWLEMVLTHGQGG
notes: on phage
On to B13, for which the values for the ratio over background in assay [1] and in assay [2] were 4.4 ratio and 0.9 ratio, respectively.

B14: 20E2A-3-A12-IGFR (peptide)
peptide: LSVALSFYDALGQLVAGEGRW
notes: on phage
For the molecule B14, the ratio over background came out at 4.3 ratio in assay [1] and 1.1 ratio in assay [2].

B15: H2CA-4-F11-IGFR (peptide)
peptide: SAAQLFFQESFYDWFLRQVAESSQPN
notes: on phage
With B15, the figures for the ratio over background in assay [1] and in assay [2] were 6.8 ratio and 1 ratio, respectively.

B16: H2CA-4-H4-IGFR (peptide)
peptide: QAVQPGFHEEFYDWFVRQVSTGVGGG
notes: on phage
B16: the figures for the ratio over background in assay [1] and in assay [2] were 4.1 ratio and 1 ratio, respectively.

B17: B6Hα-2-C10-IR (peptide)
peptide: SGAKVIVVTGDSGDPFYHKLSELLQGS
notes: on phage
B17: the figures for the ratio over background in assay [1] and in assay [2] were 5.8 ratio and 1.1 ratio, respectively.

B18: H2CA-4-G9-IGFR (peptide)
peptide: GIISQSCPESFYDWFAGQVSDPWWCW
notes: on phage
Consider B18, for which the ratio over background was found to be 9.5 ratio in assay [1] and 0.6 ratio in assay [2].

B19: H2CA-4-F6-IGFR (peptide)
peptide: AVRATRFDEAFYDWFVRQISDGQGNK
notes: on phage
With B19, the ratio over background in assay [1] came out at 7.3 ratio; in assay [2] it was 1.1 ratio.

B20: B6Hα-3-E8-IR (peptide)
peptide: RGKTAAVIVGRPADPFYHKLSELLQGG
notes: on phage
For B20, the ratio over background was 5.3 ratio in assay [1] and 1.1 ratio in assay [2].

B21: H2CA-4-G11-IGFR (peptide)
peptide: TLDGGSFEEQFYDWFVRQLSYRTNPD
notes: on phage
For B21, the ratio over background is 9.5 ratio in assay [1] and 2.5 ratio in assay [2].

B22: H2CA-3-D6-IGFR (peptide)
peptide: QSPVGSSHEDFYDWFFRQVAQSGAHQ
notes: on phage
As to B22, the ratio over background was determined as 9 ratio in assay [1] and 2.2 ratio in assay [2].

B23: 20E2B-4-H8-IGFR (peptide)
peptide: PAGPCGFYCGLGLLLHGDQSP
notes: on phage
Consider B23, for which the ratio over background was found to be 5.3 ratio in assay [1] and 0.9 ratio in assay [2].

B24: NNRPγ-4-A7-IR (peptide)
peptide: RFDPFYSYFVNLLGASA
notes: on phage
Take B24: the results for the ratio over background in assay [1] and in assay [2] were 6.3 ratio and 1.3 ratio, respectively.

B25: H2CA-3-C6-IGFR (peptide)
peptide: SSCDGAGHESFYEWFVRQVSGCRSV
notes: on phage
Turning to B25, the figures for the ratio over background in assay [1] and in assay [2] were 5.6 ratio and 1.2 ratio, respectively.

B26: B6Hα-2-D1-IR (peptide)
peptide: GCEVIVEEGDSADPFYHKLSELCQGS
notes: on phage
Turning to B26, the ratio over background in assay [1] was 5.4 ratio; in assay [2] it was 1.3 ratio.

B27: 20E2B-3-D6-IGFR (peptide)
peptide: DSVGDNFYQLLESLVGGHGVG
notes: on phage
As to B27, the ratio over background in assay [1] turned out to be 17.8 ratio; in assay [2] it was 2.6 ratio.

B28: H2CA-1-A7-IGFR (peptide)
peptide: RCGRELYHSTFYDWFDRQVAGRTCPS
notes: on phage
For the molecule B28, the ratio over background in assay [1] amounted to 2.2 ratio; in assay [2] it was 0.6 ratio.

B29: 20E2B-3-D11-IGFR (peptide)
peptide: LGVTDGFYAALGYLIHGVGQF
notes: on phage
Take B29: the results for the ratio over background in assay [1] and in assay [2] were 12.2 ratio and 1.6 ratio, respectively.

B30: 20E2B-2-B3-IGFR (peptide)
peptide: ICTGQGFYQVLCGLLRGTSAR
notes: on phage
On to B30, for which the ratio over background in assay [1] came out at 5.3 ratio; in assay [2], 0.7 ratio.

B31: H2CA-4-F1-IGFR (peptide)
peptide: FYVQQWGHENFYDWFDRQVSQSGGAG
notes: on phage
With B31, the ratio over background stood at 3.5 ratio in assay [1] and 0.9 ratio in assay [2].

B32: 20E2A-3-D10-IGFR (peptide)
peptide: MMVVDGFYDALHQLVVAQSLG
notes: on phage
Turning to B32, the ratio over background in assay [1] stood at 6.9 ratio; in assay [2], 1.8 ratio.

B33: 20E2A-3-C7-ICFR (peptide)
peptide: VGTVAGFYDAIAQLVARASRV
notes: on phage
As to B33, the ratio over background in assay [1] is 5.4 ratio; in assay [2] it was 1.1 ratio.

B34: 20E2B-3-C4-IGFR (peptide)
peptide: ASSASGFYELLQRLAGLGLEV
notes: on phage
For the molecule B34, the ratio over background was determined as 20.4 ratio in assay [1] and 3.3 ratio in assay [2].

B35: H2CA-4-F10-IGFR (peptide)
peptide: VNQSGSIHENFYDWFERQVSHQRGVR
notes: on phage
Consider B35, for which the ratio over background came out at 5.7 ratio in assay [1] and 1 ratio in assay [2].

B36: E4Dα-4-H2-IR (peptide)
peptide: GFREGNFYEWFQAQVT
notes: on phage
In the case of B36, the ratio over background in assay [1] was 33.9 ratio; in assay [2] it was 8.2 ratio.

B37: H2CA-3-D8-IGFR (peptide)
peptide: NYRRQVFNGNFYDWFDRQVFSLVTPG
notes: on phage
B37: the ratio over background stood at 7.2 ratio in assay [1] and 1.8 ratio in assay [2].

B38: H2CA-2-B4-IGFR (peptide)
peptide: CCLLCRFQQNFYDWFVCQGISRLRPL
notes: on phage
Turning to B38, the ratio over background in assay [1] was 4.1 ratio; in assay [2], 1.1 ratio.

B39: B6Hα-1-A3-IR (peptide)
peptide: SRAKVEAEMPDSGDPFYHKLSELLASG
notes: on phage
In the case of B39, the ratio over background in assay [1] worked out at 2.6 ratio; in assay [2], 0.8 ratio.

B40: B6L-4-D7-IR (peptide)
peptide: AETSVQVGWIRLQSVWPGEHWNTVDPFYHKLSELLRGSGA
notes: on phage
Turning to B40, the ratio over background is 4.8 ratio in assay [1] and 1.4 ratio in assay [2].

B41: H2CA-1-A3-IGFR (peptide)
peptide: APDPSDFQEIFYDWFVRQVSRMPGGG
notes: on phage
Regarding B41, the values for the ratio over background in assay [1] and in assay [2] were 3.8 ratio and 0.8 ratio, respectively.

B42: H2CA-4-F7-IGFR (peptide)
peptide: SSIGGGFHENFYDWFSRQLSQSPPLK
notes: on phage
B42: the ratio over background was determined as 3.2 ratio in assay [1] and 0.8 ratio in assay [2].

B43: 20E2B-3-E12-IGFR (peptide)
peptide: VATSQGFYSGLSELLQGGGNV
notes: on phage
For B43, the ratio over background was found to be 6 ratio in assay [1] and 0.8 ratio in assay [2].

B44: H2CA-2-B9-IGFR (peptide)
peptide: RAGSSDFHEDFYEWFVRQVSLSLKGK
notes: on phage
On to B44, for which the ratio over background is 7 ratio in assay [1] and 1.7 ratio in assay [2].

B45: 20E2B-2-B7-IGFR (peptide)
peptide: LSSDGQFYRALNLLLQGSAGR
notes: on phage
As to B45, the results for the ratio over background in assay [1] and in assay [2] were 6.1 ratio and 0.9 ratio, respectively.

The record behind these values is patent publication US20040023887A1 (published 2004).
